Experimental data reported in patent US20250388666A1 (BRIGHAM AND WOMEN S HOSPITAL, published 2025).
Values joined by “and” are separate entries in the source; they are usually repeats but may differ in a detail not shown here. Equal entries are not always repeated.

How the values were obtained:
[1] = target: T1, CEACAM1 (Sino Biological) (human, UniProt P13688 35-428, limits assumed); test: SPR multi-cycle, IgG on Protein A
T1 construct: may be the same as CEACAM1-HIS; also called hCEACAM1; biotinylated soluble CEACAM1
T1 sequence: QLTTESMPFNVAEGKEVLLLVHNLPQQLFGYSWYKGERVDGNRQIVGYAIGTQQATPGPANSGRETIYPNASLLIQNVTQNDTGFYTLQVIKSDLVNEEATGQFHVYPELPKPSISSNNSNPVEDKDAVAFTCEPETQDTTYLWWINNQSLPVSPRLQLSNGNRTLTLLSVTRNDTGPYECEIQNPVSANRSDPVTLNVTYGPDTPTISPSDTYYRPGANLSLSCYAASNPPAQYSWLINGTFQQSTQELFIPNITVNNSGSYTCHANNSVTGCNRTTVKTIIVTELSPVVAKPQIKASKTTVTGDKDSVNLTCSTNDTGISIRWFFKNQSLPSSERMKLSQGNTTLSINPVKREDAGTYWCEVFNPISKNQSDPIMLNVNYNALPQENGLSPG

[2] = target: T2, CEACAM3 (Sino Biological) (human, UniProt P40198 35-155, limits assumed); test: binding ELISA on plate-coated CEACAM (0.5 µg/mL); antibody at 1.67, 0.062 and 0.0069 µg/mL; signal as % of parent IgG on CEACAM1 at 1.67 µg/mL on the same plate
T2 construct: also called hCEACAM3
T2 sequence (looked up): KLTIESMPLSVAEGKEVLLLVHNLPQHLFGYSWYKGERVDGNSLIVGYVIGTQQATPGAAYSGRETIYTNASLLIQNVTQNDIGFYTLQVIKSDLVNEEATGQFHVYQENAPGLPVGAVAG

[3] = target: T3, CEACAM1-HIS (Sino Biologics Inc.) (Homo sapiens (Human), UniProt P13688 35-428); test: SPR multi-cycle, IgG on Protein A
T3 construct: bought; not shown: His tag
T3 sequence: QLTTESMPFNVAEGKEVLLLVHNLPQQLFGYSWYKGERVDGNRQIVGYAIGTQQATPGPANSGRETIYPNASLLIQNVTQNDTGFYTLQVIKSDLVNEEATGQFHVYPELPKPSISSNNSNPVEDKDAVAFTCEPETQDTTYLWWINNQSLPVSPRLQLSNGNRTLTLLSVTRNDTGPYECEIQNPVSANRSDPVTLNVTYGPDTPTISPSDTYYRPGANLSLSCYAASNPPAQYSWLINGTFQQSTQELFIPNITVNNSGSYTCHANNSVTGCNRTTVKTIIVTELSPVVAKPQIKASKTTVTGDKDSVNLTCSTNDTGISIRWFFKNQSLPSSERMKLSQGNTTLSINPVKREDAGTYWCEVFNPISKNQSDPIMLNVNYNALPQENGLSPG
Protocol: As an alternative approach to assess the binding of the antibody combinations and the control antibodies to CEACAM1, a kinetic analysis was performed on a Biacore T200 running Biacore T200 Evaluation Software V2.0.1. All experiments were run at 25° C. with HBS-P+ running buffer (pH 7.4).
For multi-cycle kinetic analysis purified antibody was immobilized at a protein concentration of 1 μg/mL in HBS-P+. At the start of each cycle, antibody was captured on Protein A to give an RU of ˜100 and the surface allowed to stabilize. Kinetic data was obtained at a flow rate of 35 μl/min to minimize any potential mass transfer effects. Multiple repeats of the blank (no CEACAM1) and a repeat of a single concentration of the analyte were programmed into the kinetic run in order to check the stability of both the surface and analyte over the kinetic cycles. For kinetic analysis, a 2-fold dilution series was selected from 100 to 1.5625 nM CEACAM1. The association phase of CEACAM1 was monitored initially for 180 seconds. In the subsequent experiment a longer association time (275 seconds) was used in order to better reach steady state. The dissociation phase was measured for 250 seconds. Regeneration of the Protein A surface was conducted using 2 injections of 10 mM glycine-HCL pH 1.5 at the end of each cycle.
The signal from the reference channel Fc1 was subtracted from that of Fc2, Fc3 and Fc4 to correct for differences in non-specific binding to a reference surface, a global Rmax parameter was used in the 1-to-1 binding model. The relative KD compared to the chimeric parental antibody was calculated by dividing the KD of the Composite Human Antibody™ variants by that of the chimeric parental antibody on the same chip.

[4] = target: T4, human GST-CEACAM1 (human, UniProt P13688 35-141, limits assumed); test: competition ELISA vs murine parent antibody
T4 construct: printed both as GST-CEACAM1 and CEACAM1-GST; also called human CEACAM1-GST protein; hCEACAM1-GST; not shown: GST tag
T4 sequence: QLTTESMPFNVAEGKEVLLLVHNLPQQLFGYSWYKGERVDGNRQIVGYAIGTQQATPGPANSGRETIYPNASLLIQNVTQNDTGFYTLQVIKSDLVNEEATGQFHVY
Protocol: The binding of the purified chimeric antibody to human CEACAM1 was assessed in a competition ELISA assay. Nunc Immuno MaxiSorp 96 well flat bottom microtitre plates were pre-coated with 1 μg/ml human GST-CEACAM1 in 1×PBS, overnight at 4° C. The following day the plates were blocked for 1 hour at room temperature with 2% BSA/PBS before washing 2× with PBS/0.05% Tween 20 pH 7.4.
The binding of the purified antibodies to human CEACAM1 were assessed in a competition ELISA assay as described above. The ability of each variant to compete against the murine parental antibody for binding to the GST-CEACAM1 was compared to that of the chimeric antibody (VH0/Vκ0), which was included on each plate.

B1: VH2 N56Q/Vκ4 S27(f)A IgG (antibody, V domains shown)
VH: EVQLLESGGGLVQPGGSLRLSCAASGFSFSDYYLYWVRQAPGKGLEWVATISVGGGQTSYADSVKGRFTISRDNSKNTLYLQMNSLRAEDTAMYYCTRGLYYGPAWFAYWGQGTLVTVSS
VL: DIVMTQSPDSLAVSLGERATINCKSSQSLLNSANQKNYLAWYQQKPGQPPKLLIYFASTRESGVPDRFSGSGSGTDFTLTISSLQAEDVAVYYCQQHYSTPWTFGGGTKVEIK
notes: IgG4 S241P, kappa; also called Parent; Parent IgG
Q: Which results are given for B1?
A: relative KD to Parent [1]: 1 ratio; binding result [2]: no binding (tested: 1.67 µg/mL)

B2: chimeric parental antibody VH0/Vκ0 (antibody, IgG4, V domains shown)
VH: EVQLVESGGGFVKPGGSLKLSCAASGFSFSDYYLYWVRQTPEKRLEWVATISVGGGNTSYPDSVKGRFTISRDNAKNNLYLQMSSLKSEDTAMYYCTRGLYYGPAWFAYWGQGTLVTVSA
VL: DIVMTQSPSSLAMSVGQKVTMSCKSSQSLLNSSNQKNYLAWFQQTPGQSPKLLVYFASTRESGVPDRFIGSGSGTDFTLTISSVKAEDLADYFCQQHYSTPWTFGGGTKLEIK
notes: IgG4 (S241P), kappa; also called Chimera; chimeric antibody
Q: What does the source list for B2?
A: Kd [3]: 0.0272 µM and 0.0223 µM and 0.0195 µM; koff [3]: 0.0053 s⁻¹ and 0.00571 s⁻¹ and 0.00531 s⁻¹; kon [3]: 195000 M⁻¹ s⁻¹ and 256000 M⁻¹ s⁻¹ and 272000 M⁻¹ s⁻¹; relative KD to chimeric parental antibody [3]: 1 ratio; average relative IC50 (normalized to chimeric antibody) [4]: 1 ratio
